Experimental data: patent US20260242441A1

Target: CD45 (PTPRC) phosphatase, endogenous, of Jurkat cells and human PBMC (human) (UniProt P08575)
Assay: cell-based or functional assay

With “soluble recombinant human BTN2A2-Fc fusion protein (baculovirus / insect cell derived)” the expansion of CD4+CD25+CD127low/-Foxp3+ Treg cells in human PBMC MLR, with or without CD45 inhibitor was 2 fold.
